Measured values from publication PMC7603204.
Positions count from the first letter of the chain named. Numbers in names are those of the source.

B1: E. coli AlaRS (Escherichia coli K-12; C666A/R561C) (protein)
chain: SKSTAEIRQAFLDFFHSKGHQVVASSSLVPHNDPTLLFTNAGMNQFKDVFLGLDKRNYSRATTSQRCVRAGGKHNDLENVGYTARHHTFFEMLGNFSFGDYFKHDAIQFAWELLTSEKWFALPKERLWVTVYESDDEAYEIWEKEVGIPRERIIRIGDNKGAPYASDNFWQMGDTGPCGPCTEIFYDHGDHIWGGPPGSPEEDGDRYIEIWNIVFMQFNRQADGTMEPLPKPSVDTGMGLERIAAVLQHVNSNYDIDLFRTLIQAVAKVTGATDLSNKSLRVIADHIRSCAFLIADGVMPSNENRGYVLRRIIRRAVRHGNMLGAKETFFYKLVGPLIDVMGSAGEDLKRQQAQVEQVLKTEEEQFARTLERGLALLDEELAKLSGDTLDGETAFRLYDTYGFPVDLTADVCRERNIKVDEAGFEAAMEEQRRRAREASGFGADYNAMIRVDSASEFKGYDHLELNGKVTALFVDGKAVDAINAGQEAVVVLDQTPFYAESGGQVGDKGELKGANFSFAVEDTQKYGQAIGHIGKLAAGSLKVGDAVQADVDEARRARICLNHSATHLMHAALRQVLGTHVSQKGSLVNDKVLRFDFSHNEAMKPEEIRAVEDLVNTQIRRNLPIETNIMDLEAAKAKGAMALFGEKYDERVRVLSMGDFSTELAGGTHASRTGDIGLFRIISESGTAAGVRRIEAVTGEGAIATVHADSDRLSEVAHLLKGDSNNLADKVRSVLERTRQLEKELQQLKEQAAAQESANLSSKAIDVNGVKLLVSELSGVEPKMLRTMVDDLKNQLGSTIIVLATVVEGKVSLIAGVSKDVTDRVKAGELIGMVAQQVGGKGGGRPDMAQAGGTDAAALPAALASVKGWVSAKLQ
B2: E. coli AlaRS (Escherichia coli K-12; C666A/R561S) (protein)
chain: B1 chain with C560S
B3: E. coli AlaRS (Escherichia coli K-12; D551Y) (protein)
chain: B1 chain with D550Y, C560R, A665C
B4: E. coli AlaRS (Escherichia coli K-12; R561C) (protein)
chain: B1 chain with A665C
B5: E. coli AlaRS (Escherichia coli K-12; C666A) (protein)
chain: B1 chain with C560R
B6: E. coli AlaRS (Escherichia coli K-12; R561S) (protein)
chain: B1 chain with C560S, A665C
B7: E. coli AlaRS (Escherichia coli K-12) (protein)
chain: B1 chain with C560R, A665C
B8: E. coli AlaRS (Escherichia coli K-12; C666A/D551Y) (protein)
chain: B1 chain with D550Y, C560R

Substrate: C[C@H](N)C(=O)O
Experiment: purified protein
Conditions: 2 mM ATP, 2 mM PPi, 10 mM MgCl2, 30 mM KCl, 2 mM NaF, pH 7.2, 37 °C, amino acid activation

| Protein | Km | kcat | kcat/Km |
| --- | --- | --- | --- |
| B1 | 190 ± 30 µM | 13.7 s⁻¹ | 71500 M⁻¹ s⁻¹ |
| B2 | 177 ± 37 µM | 13.2 s⁻¹ | 74300 M⁻¹ s⁻¹ |
| B3 | 260 ± 76 µM | 11.9 s⁻¹ | 46000 M⁻¹ s⁻¹ |
| B4 | 203 ± 68 µM | 21.8 s⁻¹ | 107000 M⁻¹ s⁻¹ |
| B5 | 263 ± 115 µM | 16.8 s⁻¹ | 63800 M⁻¹ s⁻¹ |
| B6 | 180 ± 15 µM | 20.3 s⁻¹ | 112000 M⁻¹ s⁻¹ |
| B7 | 320 ± 150 µM | 20.8 s⁻¹ | 65200 M⁻¹ s⁻¹ |
| B8 | 217 ± 100 µM | 18.3 s⁻¹ | 84300 M⁻¹ s⁻¹ |
